Test results from article PMC6506263 (The Biochemical journal, 2019).
Where a chain is given by its changes, count along the chain named. Names may count otherwise.

Tests used:
[1] = molecular target: TorS sensor domain (Escherichia coli) (UniProt P39453); settings: cited from earlier work
[2] = molecular target: the molecule itself; test: native gel or EMSA
[3] = molecular target: the molecule itself; test: cross-linking

Question: With “TorS sensor domain (from UniProt P39453)” as the molecule, how does the Kd [1] read?
Answer: The Kd was 49.6 µM.

B1: CusScp-short, cytoplasmic domain of CusS (amino acids 208–480) with C-terminal 6xHis tag, wild-type (domain or fragment, E. coli)
chain: MASKGHAPIRSVSRQIQNITSKDLDVRLDPQTVPIELEQLVLSFNHMIERIEDVFTRQSNFSADIAHEIRTPITNLITQTEIALSQSRSQKELEDVLYSNLEELTRMAKMVSDMLFLAQADNNQLIPEKKMLNLADEVGKVFDFFEALAEDRGVELRFVGDKCQVAGDPLMLRRALSNLLSNALRYTPTGETIVVRCQTVDHLVQVIVENPGTPIAPEHLPRLFDRFYRVDPSRQRKGEGSGIGLAIVKSIVVAHKGTVAVTSDARGTRFVITLPALE
Question: Does B1 bind [2]?
Answer: Result: binds

B2: CusScp-long, cytoplasmic domain of CusS with C-terminal Strep-Myc-Strep-FLAG-HA-Strep tags, wild-type (domain or fragment, E. coli, UniProt P77485 208-480, looked up)
chain: KGHAPIRSVSRQIQNITSKDLDVRLDPQTVPIELEQLVLSFNHMIERIEDVFTRQSNFSADIAHEIRTPITNLITQTEIALSQSRSQKELEDVLYSNLEELTRMAKMVSDMLFLAQADNNQLIPEKKMLNLADEVGKVFDFFEALAEDRGVELRFVGDKCQVAGDPLMLRRALSNLLSNALRYTPTGETIVVRCQTVDHLVQVIVENPGTPIAPEHLPRLFDRFYRVDPSRQRKGEGSGIGLAIVKSIVVAHKGTVAVTSDARGTRFVITLPA
Question: Does B2 bind [2]?
Answer: Result: binds

B3: N-terminal Strep-tagged CusS(39–187) wild-type, periplasmic sensor domain of the histidine kinase CusS (domain or fragment, E. coli)
chain: VKVHFAEQDINDLKEISATLERVLNHPDETQARRLMTLEDIVSGYSNVLISLADSQGKTVYHSPGAPDIREFTRDAIPDKDAQGGEVYLLSGPTMMMPGHGHGHMEHSNWRMINLPVGPLVDGKPIYTLYIALSIDFHLHYINDLMNKLEGSA
Question: Does B3 bind [3]?
Answer: Result: binds

B4: N-terminal Strep-tagged CusS(39–187)-IIA (M133I/M135I/H145A), internal metal binding site eliminated (domain or fragment, E. coli)
chain: B3 chain with M95I, M97I, H107A
Question: Does B4 bind [3]?
Answer: Result: binds
